Laboratory results as given in article PMC8136665.
Several values for one entry are separate records, joined by “and”; a condition that tells them apart may be missing. Identical values can stand only once.

Experiments:
[1] = target: SARS-CoV-2 spike (S) glycoprotein ectodomain, prefusion-stabilised trimer (SARS-CoV-2) (UniProt P0DTC2); experiment: negative-stain electron microscopy
[2] = target: SARS-CoV-2 spike (S) glycoprotein ectodomain, prefusion-stabilised trimer (SARS-CoV-2) (UniProt P0DTC2); experiment: SPR

Row | Substance | stoichiometry N [1] | Kd [2]
1 | DC-SIGN extracellular domain (Dendritic Cell-Specific Intercellular adhesion molecule-3-Grabbing Non-integrin) (from UniProt Q9NNX6 66-404) (domain or fragment) | 1 and > 2 | 11.9 µM and 4.33 µM
2 | L-SIGN extracellular domain (liver/lymph node-specific intracellular adhesion molecules-3 grabbing non-integrin) (from UniProt Q9H2X3 78-399) (domain or fragment) |  | 1.8 µM and 1.66 µM
3 | MGL (Macrophage galactose lectin) extracellular domain (domain or fragment) |  | 7 µM
